The values below come from US20180186871A1 (SINGAPORE HEALTH SERVICES PTE, published 2018).

First the molecules themselves.
B1: YU100-H06 (scFv, not shown: a dimerising Fc or GST)
scFv: QVQLVESGGGVVQPGRSLRLSCAASGFTFSSYGMHWVRQAPGKGLEWVAVISYDGSNKYYADSVKGRFTISRDNSKNTLYLQMNSLRAEDTAVYYCAKIGATDPLDYWGQGTLVTVSSGSASAPKLEEGEFSEARIQSALTQPRSVSGSPGQSVTISCTGTSSDVGGYNYVSWYQQHPGKAPKLMIYDVTKRPSGVPDRFSGSKSGNTASLTISGLQAEDEADYYCSSYAGSYTWVFGGGTKLTVL
B2: YU100-G01 (scFv)
scFv: QVQLVQSGGGVVQPGRSLRLSCAASGFTFSSYGMHWVRQAPGKGLEWVAVISYDGSNKYYADSVKGRFTISRDNSKNTLYLQMNSLRAEDTAVYYCAKIGATDPLDYWGQGTLVTVSSGSASAPKLEEGEFSEARVQSALTQPRSVSASPGQSVTISCTGTSSDVGAYNYVSWYQQHPGKAPKLMLYDVNKRPSGVPDRFSGSKSGNTASLTISRLQAEDEADYYCCSYAGSYTWVFGGGTKLTVL
B3: YU100-G09 (scFv)
scFv: EVQLVESGGGVVQPGRSLRLSCAASGFTFSSYGMHWVRQAPGKGLEWVAVISYDGSNKYYADSVKGRFTISRDNSKNTLYLQMNSLRAEDTAVYYCAKIGATDPLDYWGQGTLVTVSSGSASAPKLEEGEFSEARVQSALTQPRSVSGSPGQSVTISCTGTISDVGGYNYVSWYQQHPGKAPKLMIYDVTKRPSGVPDRFSGSKSGNTASLTISGLQAEDEAGYYCSSYAGSYTWVFGGGTKLTVL
B4: YU100-B07 (scFv)
scFv: QVQLVESGGGVVQPGRSLRLSCAASGFTFSSYGMHWVRQAPGKGLEWVAVISYDGSNKYYADSVKGRFTISRDNSKNTLYLQMNSLRAEDTAVYYCAKIGATDPLDYWGQGTLVTVSSGSASAPKLEEGEFSEARVQSALTQPRSVSGSPGQSVTMSCTGTSRDVGGYNYVSWYQHHPGKAPKLMIYDVSKRPSGVPDRFSGSKSGNTASLTISELQAEDEADYYCCSYAGSYTWVFGGGTKLTVL
B5: YU100-E10 (scFv)
scFv: QVQLVQSGGGVVQPGRSLRLSCAASGFTFSSYGMHWVRQAPGKGLEWVAVISYDGSNKYYADSVKGRFTISRDNSKNTLYLQMNSLRAEDTAVYYCAKIGATDPLDYWGQGTLVTVSSGSASAPKLEEGEFSEARVQSALTQPRSVSGSPGQSVTISCTGTSSDVGGYNYVSWYQQHPGKAPKLMIFDVSQRPSGVPDRFSASKSGNTASLTISGLQAEDEADYYCCSYAGSYTWVFGGGTKLTVL
B6: YU100-E07 (scFv)
scFv: QVQLQESGGGVVQPGRSLRLSCAASGFTFSSYGMHWVRQAPGKGLEWVAVISYDGSNRYYADSVKGRFAISRDNSKNTLYLQMNSLRAEDTAVYYCAKIGATDPLDYWGQGTLVTVSSGSASAPKLEEGEFSEARVQSALTQPRSVSGSPGQSVTISCTGTSSDVGGYDYVSWYQQHPGKAPELMIYDVTKRPSGVADRFSGSKSGNTASLTISGLQAEDEADYYCCSYAGRYTWVFGGGTKLTVL
B7: YU100-B06 (scFv)
scFv: QVQLVESGGGVVQPGRSLRLSCAASGFTFSSYGMHWVRQAPGKGLEWVAVISYDGSNKYYADSVKSRFTISRDNSKNTLYLQMNSLRAEDTAVYYCAKIGATDPLDYWGQGTLVTVSSGSASAPKLEEGEFSEARVQSALTQPASVSGSPGQSITISCTGTSSDVGGYNYVSWYQQHPGKAPKLMIYDVSKRPSGVPDRFSGSKSGNTASLTISGLQAEDEADYYCNSYAGSYTWVFGGGTKLTVL
B8: YU100-B03 (scFv)
scFv: QVQLVQSGGGVVQPGRSLRLSCAASGFTFSSYGMHWVRQAPGKGLEWVAVISYDGSNKYYADSVKGRFTISRDNSKNTLYLQMNSLRAEDTAVYYCAKIGATDPLDYWGQGTLVTVSSGSASAPKLEEGEFSEARVQSVLTQPRSVSGSPGRSVTISCTGTSSDVGGYNYVSWYQQHPGKAPKLTLYDVVKRPSGVPDRYSGSKSGNTASLTISGLQAEDEADYYCCSYAGGYTWVFGGGTKVTVV
B9: YU100-H05 (scFv)
scFv: QVQLVESGGGVVQPGRSLRLSCAASGFTFSSYGMHWVRQAPGKGLEWVAVISYDGSNKYYADSVKGRFTISRDNSKNTLYLQMNSLRAEDTAVYYCAKIGATDPLDYWGQGTLVTVSSGSASAPKLEEGEFSEARVQAVLTQPRSVSGSPGQSITISCTGTGSNVGGYNYVSWYQQHPGQAPKLMIYDVSKRPSGVPDRFSGSKSGNTASLTISGLQAEDEADYYCCSYAGTYTWVFGGGTKLTVL
B10: YU100-F02 (scFv)
scFv: EVQLVESGGGVVQPGRSLRLSCAASGFTFSSYGMHWVRQAPGKGLEWVAVISYDGSNKYYADSVKGRFTISRDNSKNTLYLQMNSLRAEDTAVYYCAKIGATDPLDYWGQGTLVTVSSGSASAPKLEEGEFSEARVQSALTQPRSVSGSPGQSVTISCTGTSSDVGGYNYVSWYQQHPGKAPKLMIYDVTKRPSGVPDRFSGSKSGNTASLTISGLQADDEADYYCCSYAGSYTWIFGGGTKLTVL
B11: YU100-A12 (scFv)
scFv: QVQLVESGGGVVQPGRSLRLSCAASGFTFSSYGMHWVRQAPGKGLEWVAVISYDGSNKYYADSVKGRFTISRDNSKNTLYLQMNSLRAEDTAVYYCAKIGATDPLDYWGQGTLVTVSSGSASAPKLEEGEFSEARVLPVLTQPRSVSGSPGQSVTISCTGTSSDVGGYNYVSWYQQHPGKAPKLMIYDVSKRPSGVPDRFSGSKSGDTASLTISGLQAEDEADYYCSSYAGSYTWVFGGGTKLTVL
B12: YU100-B01 (scFv)
scFv: QVQLVQSGGGVVQPGRSLRLSCAASGFTFSSYGMHWVRQAPGKGLEWVAVISYDGSNKYYADSVKGRFTISRDNSKNTLYLQMNSLRAEDTAVYYCAKIGATDPLDYWGQGTLVTVSSGSASAPKLEEGEFSEARVQSALTQPRSVSGSPGQSVTISCTGTNTDVGAYNYVSWYQQYPGKAPKLIIYDVSKRPSGVPDRFSGSKSGNTASLTISGLQAEDEADYYCCSYAGSYSWVFGGGTKLTVL
B13: YU112-A07 (scFv, not shown: a dimerising Fc or GST)
scFv: QVQLVESGGGVVQPGRSLRLSCAASGFTFSSYGMHWVRQAPGKGLEWVAVISYDGSNKYYTDSVKGRFTISRDNSKNTLYLQMNSLRAEDTAVYYCAKIGATDPLDYWGQGTLVTVSSGSASAPKLEEGEFSEARVQSALTQPRSVSGSPGQSVTISCTGTISDVGGYNYVSWYQQHPGKAPKLMIYDVTKRPSGVPDRFSGSKSGNTASLTISGLQAEDEAGYYCSSYAGSYTWVFGGGTELTVL
B14: YU100-A11 (scFv)
scFv: EVQLQQSGGGVVQPGRSLRLSCAASGFTFSSYGMHWVRQAPGKGLEWVAVISYDGSNKYYADSVKGRFTISRDNSKNTLYLQMNSLRAEDTAVYYCAKIGATDPLDYWGQGTLVTVSSGSASAPKLEEGEFSEARVQSALTQPRSVSGSPGQSVTISCTGTSSDVGGYNYVSWYQQHPGKAPKLMIYDVSKRPSGVPDRFSGSKSGNTASLTISGLQAEDEADYYCCSYAGSYTWVFGGGTKLTVL
B15: YU100-E12 (scFv)
scFv: QVQLVESGGGVVQPGRSLRLSCAASGFTFSSYGMHWVRQAPGKGLEWVAVISYDGSNKYYADSVKGRFTISRDNSKNTLYLQMNSLRAEDTAVYYCAKIGATDPLDYWGQGTLVTVSSGSASAPKLEEGEFSEARVQSALTQPASVSGSPGQSITISCTGTSSDVGGYNYVSWYQQHPGTAPKLMIYDVSNRPSGVSNRFSGSKSGNTASLTISGLQAEDEADYYCSSYTSSTTWVFGGGTKLTVL
B16: YU100-H11 (scFv, not shown: a dimerising Fc or GST)
scFv: QVQLVQSGGGVVQPGRSLRLSCAASGFTFSSYGMHWVRQAPGKGLEWVAVISYDGSNKYYADSVKGRFTISRDNSKNTLYLQMNSLRAEDTAVYYCAKIGATDPLDYWGQGTLVTVSSGSASAPKLEEGEFSEARVQSALTQPASVSGSPGQSITISCTGTSSDVGGYNYVSWYQQHPGKAPKLMIYDVSNRPSGVSNRFSGSKSGNTASLTISGLQAEDEADYYCCSYAGSYTWVFGGGTKLTVL
Further: test concentration or dose not given here.

This test addresses T1, human IL-11 (human, UniProt P20809 22-199).
T1 sequence (looked up): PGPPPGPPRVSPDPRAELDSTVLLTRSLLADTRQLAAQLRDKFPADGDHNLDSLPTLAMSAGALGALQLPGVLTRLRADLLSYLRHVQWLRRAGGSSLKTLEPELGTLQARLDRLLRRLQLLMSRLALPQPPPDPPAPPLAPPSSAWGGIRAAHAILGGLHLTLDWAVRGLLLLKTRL
Put plainly: cell-based or functional assay.
In the case of B1, the “MMP2 production (ng/ml), TGFB1-stimulated human atrial fibroblasts, Experiment 1 (NEG 42.7, POS 70.2)” value (“MMP2 production (ng/ml) … (NEG 42.7, POS 70.2)” below) turned out to be 52.3 ng/mL and the “MMP2 production (ng/ml), TGFB1-stimulated human atrial fibroblasts, Experiment 2 (NEG 36.2, POS 62.3)” value (“MMP2 production (ng/ml) … (NEG 36.2, POS 62.3)” below) stood at 43.9 ng/mL.

With B2, the “MMP2 production (ng/ml) … (NEG 42.7, POS 70.2)” value was 56.6 ng/mL and the “MMP2 production (ng/ml) … (NEG 36.2, POS 62.3)” value amounted to 49.7 ng/mL.

Regarding B3, the “MMP2 production (ng/ml) … (NEG 42.7, POS 70.2)” value was 59.9 ng/mL and the “MMP2 production (ng/ml) … (NEG 36.2, POS 62.3)” value was determined as 47.5 ng/mL.

As to B4, the “MMP2 production (ng/ml) … (NEG 42.7, POS 70.2)” value came out at 55.9 ng/mL and the “MMP2 production (ng/ml) … (NEG 36.2, POS 62.3)” value was 47.4 ng/mL.

On to B5, for which the “MMP2 production (ng/ml) … (NEG 42.7, POS 70.2)” value is 56.1 ng/mL and the “MMP2 production (ng/ml) … (NEG 36.2, POS 62.3)” value is 47 ng/mL.

Take B6: the “MMP2 production (ng/ml) … (NEG 42.7, POS 70.2)” value turned out to be 52.1 ng/mL and the “MMP2 production (ng/ml) … (NEG 36.2, POS 62.3)” value came to 46.5 ng/mL.

For B7, the “MMP2 production (ng/ml) … (NEG 42.7, POS 70.2)” value was determined as 47.6 ng/mL and the “MMP2 production (ng/ml) … (NEG 36.2, POS 62.3)” value was found to be 49.6 ng/mL.

Consider B8, for which the “MMP2 production (ng/ml) … (NEG 42.7, POS 70.2)” value was 47.3 ng/mL and the “MMP2 production (ng/ml) … (NEG 36.2, POS 62.3)” value came out at 46.8 ng/mL.

In the case of B9, the “MMP2 production (ng/ml) … (NEG 42.7, POS 70.2)” value was found to be 57.1 ng/mL and the “MMP2 production (ng/ml) … (NEG 36.2, POS 62.3)” value was determined as 47.8 ng/mL.

For B10, the “MMP2 production (ng/ml) … (NEG 42.7, POS 70.2)” value was 51.2 ng/mL and the “MMP2 production (ng/ml) … (NEG 36.2, POS 62.3)” value is 43.5 ng/mL.

In the case of B11, the “MMP2 production (ng/ml) … (NEG 42.7, POS 70.2)” value came to 59.5 ng/mL and the “MMP2 production (ng/ml) … (NEG 36.2, POS 62.3)” value was 50.4 ng/mL.

Consider B12, for which the “MMP2 production (ng/ml) … (NEG 42.7, POS 70.2)” value stood at 52.5 ng/mL and the “MMP2 production (ng/ml) … (NEG 36.2, POS 62.3)” value was found to be 40 ng/mL.

For the molecule B13, the “MMP2 production (ng/ml) … (NEG 42.7, POS 70.2)” value was 50.7 ng/mL and the “MMP2 production (ng/ml) … (NEG 36.2, POS 62.3)” value worked out at 45 ng/mL.

On to B14, for which the “MMP2 production (ng/ml) … (NEG 42.7, POS 70.2)” value was 51.6 ng/mL and the “MMP2 production (ng/ml) … (NEG 36.2, POS 62.3)” value was found to be 45.7 ng/mL.

With B15, the “MMP2 production (ng/ml) … (NEG 42.7, POS 70.2)” value was determined as 56 ng/mL and the “MMP2 production (ng/ml) … (NEG 36.2, POS 62.3)” value turned out to be 47.9 ng/mL.

Consider B16, for which the “MMP2 production (ng/ml) … (NEG 42.7, POS 70.2)” value is 53.7 ng/mL and the “MMP2 production (ng/ml) … (NEG 36.2, POS 62.3)” value came out at 45.5 ng/mL.
